Reference: PMC7827474, “DnaJ Proteins Regulate WUS Expression in Shoot Apical Meristem of Arabidopsis”

What was measured:
[1] = biological target: T1, MBP:WUS (Arabidopsis thaliana, UniProt Q9SB92 1-292); test: EMSA; EMSA: 10 mM HEPES pH 7.8, 20 mM KCl, 1 mM MgCl2, 21 mM DTT (so in the source), 7.5% glycerol, 0.5% Triton-100, 300 ng carrier DNA, 0.02% BSA, 10 uL, 22 C, 30 min; 8%; conditions: protein: recombinant; tags: MBP; chain copies: 2; label: Texas Red (3' end per Methods); blunt
T1 sequence: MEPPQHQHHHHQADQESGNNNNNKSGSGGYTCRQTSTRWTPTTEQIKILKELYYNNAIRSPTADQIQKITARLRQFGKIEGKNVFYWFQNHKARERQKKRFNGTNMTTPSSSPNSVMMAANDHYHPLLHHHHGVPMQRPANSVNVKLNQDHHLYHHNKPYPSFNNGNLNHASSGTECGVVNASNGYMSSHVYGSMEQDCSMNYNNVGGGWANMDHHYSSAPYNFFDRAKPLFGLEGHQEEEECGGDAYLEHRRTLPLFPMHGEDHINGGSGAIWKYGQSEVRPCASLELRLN

[2] = biological target: T2, MBP:WUS;MBP:At5g09540 (Arabidopsis thaliana;Arabidopsis …, UniProt Q9SB92;A2RVL3 1-292;1-280, |); test: EMSA; more efficient than WUS alone; EMSA: 10 mM HEPES pH 7.8, 20 mM KCl, 1 mM MgCl2, 21 mM DTT (so in the source), 7.5% glycerol, 0.5% Triton-100, 300 ng carrier DNA, 0.02% BSA, 10 uL, 22 C, 30 min; 8%; conditions: protein: recombinant;recombinant; tags: MBP;MBP; label: Texas Red (3' end per Methods); blunt
T2 sequence 1: T1 sequence
T2 sequence 2: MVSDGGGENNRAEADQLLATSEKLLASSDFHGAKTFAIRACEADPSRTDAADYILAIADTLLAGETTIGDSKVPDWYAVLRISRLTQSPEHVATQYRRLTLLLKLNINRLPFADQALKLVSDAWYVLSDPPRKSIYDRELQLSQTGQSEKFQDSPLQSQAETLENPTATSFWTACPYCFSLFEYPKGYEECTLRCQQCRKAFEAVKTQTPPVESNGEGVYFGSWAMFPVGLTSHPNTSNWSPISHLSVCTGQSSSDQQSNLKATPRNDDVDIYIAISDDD

[3] = biological target: T3, MBP:WUS;MBP:SDJ3 (Arabidopsis thaliana;Arabidopsis …, UniProt Q9SB92;F4I0F5 1-292;1-797, |); test: as above; conditions: protein: recombinant;recombinant; tags: MBP;MBP; label: Texas Red (3' end per Methods); blunt
T3 sequence 1: T1 sequence
T3 sequence 2: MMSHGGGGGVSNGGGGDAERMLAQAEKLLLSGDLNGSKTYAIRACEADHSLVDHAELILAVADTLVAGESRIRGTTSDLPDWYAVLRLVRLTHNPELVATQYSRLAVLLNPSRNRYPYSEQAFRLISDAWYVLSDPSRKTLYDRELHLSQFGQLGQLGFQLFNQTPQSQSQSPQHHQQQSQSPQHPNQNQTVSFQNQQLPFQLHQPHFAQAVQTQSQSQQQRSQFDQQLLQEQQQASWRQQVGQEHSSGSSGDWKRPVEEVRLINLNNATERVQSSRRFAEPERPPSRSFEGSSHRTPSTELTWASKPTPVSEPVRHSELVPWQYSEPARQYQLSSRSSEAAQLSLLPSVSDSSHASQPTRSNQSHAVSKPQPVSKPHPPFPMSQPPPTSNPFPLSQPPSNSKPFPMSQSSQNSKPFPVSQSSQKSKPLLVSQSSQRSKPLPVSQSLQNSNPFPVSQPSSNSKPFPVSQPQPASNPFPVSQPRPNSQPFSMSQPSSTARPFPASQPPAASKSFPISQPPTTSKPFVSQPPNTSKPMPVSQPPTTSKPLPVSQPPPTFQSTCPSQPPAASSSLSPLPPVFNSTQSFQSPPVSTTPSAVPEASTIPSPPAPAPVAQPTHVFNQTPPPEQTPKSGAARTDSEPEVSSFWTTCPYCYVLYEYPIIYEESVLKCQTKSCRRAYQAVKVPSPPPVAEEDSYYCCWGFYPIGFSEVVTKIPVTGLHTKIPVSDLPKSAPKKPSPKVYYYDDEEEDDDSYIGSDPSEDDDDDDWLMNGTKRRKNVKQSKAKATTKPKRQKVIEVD

Measured: binding result

B1: WUS promoter probe (pWUS) (dsDNA)
DNA 1: CTAGAATGAATAATAAAAAAAGTGAAAACCGTTTGATCATAA
DNA 2: TTATGATCAAACGGTTTTCACTTTTTTTATTATTCATTCTAG
binds: all assays above
